The values below come from PMC9508527, “Two-component carnitine monooxygenase from Escherichia coli: functional characterization, inhibition and mutagenesis of the molecular interface” (Bioscience Reports, 2022).

Test in all cases: cell-based or functional assay
One experiment addresses T1, YeaW variant D221S (E. coli, UniProt P0ABR7 1-374, D221S).
T1 sequence (looked up): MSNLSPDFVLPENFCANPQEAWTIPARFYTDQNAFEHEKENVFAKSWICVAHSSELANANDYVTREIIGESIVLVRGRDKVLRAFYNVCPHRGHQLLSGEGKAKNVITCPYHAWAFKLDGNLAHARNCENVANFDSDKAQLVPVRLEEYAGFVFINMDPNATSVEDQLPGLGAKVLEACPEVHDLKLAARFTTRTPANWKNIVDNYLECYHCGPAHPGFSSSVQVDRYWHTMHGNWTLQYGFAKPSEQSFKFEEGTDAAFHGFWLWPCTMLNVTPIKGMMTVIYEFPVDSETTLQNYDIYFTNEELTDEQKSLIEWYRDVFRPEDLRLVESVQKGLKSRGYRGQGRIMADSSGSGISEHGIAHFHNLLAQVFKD

The target of another experiment is T2, YeaW variant D135K (E. coli, UniProt P0ABR7 1-374, D135K).
T2 sequence (looked up): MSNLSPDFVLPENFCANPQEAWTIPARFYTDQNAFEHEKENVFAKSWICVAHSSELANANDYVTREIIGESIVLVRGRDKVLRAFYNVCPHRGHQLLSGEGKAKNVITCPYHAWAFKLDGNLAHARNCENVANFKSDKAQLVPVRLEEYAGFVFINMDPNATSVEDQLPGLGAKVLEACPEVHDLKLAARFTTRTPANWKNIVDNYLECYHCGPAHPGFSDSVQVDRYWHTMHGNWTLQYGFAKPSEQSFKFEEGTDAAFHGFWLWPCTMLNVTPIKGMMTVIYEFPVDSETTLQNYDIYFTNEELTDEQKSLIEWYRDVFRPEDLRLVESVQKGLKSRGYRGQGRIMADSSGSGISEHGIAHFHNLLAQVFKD

The next experiment deals with T3, YeaW variant E330K (E. coli, UniProt P0ABR7 1-374, E330K).
T3 sequence (looked up): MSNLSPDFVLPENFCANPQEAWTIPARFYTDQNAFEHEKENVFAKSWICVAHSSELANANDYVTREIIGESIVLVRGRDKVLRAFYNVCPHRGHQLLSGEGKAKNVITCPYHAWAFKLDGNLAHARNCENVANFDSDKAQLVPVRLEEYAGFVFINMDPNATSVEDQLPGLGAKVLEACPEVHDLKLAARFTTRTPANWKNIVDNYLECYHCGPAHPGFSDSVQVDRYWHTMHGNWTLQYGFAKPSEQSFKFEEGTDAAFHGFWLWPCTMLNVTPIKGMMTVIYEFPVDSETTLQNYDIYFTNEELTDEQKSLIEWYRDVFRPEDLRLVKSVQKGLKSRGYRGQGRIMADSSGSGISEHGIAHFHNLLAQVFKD

For a further experiment, the target named is T4, YeaW variant K104S (E. coli, UniProt P0ABR7 1-374, K104S).
T4 sequence (looked up): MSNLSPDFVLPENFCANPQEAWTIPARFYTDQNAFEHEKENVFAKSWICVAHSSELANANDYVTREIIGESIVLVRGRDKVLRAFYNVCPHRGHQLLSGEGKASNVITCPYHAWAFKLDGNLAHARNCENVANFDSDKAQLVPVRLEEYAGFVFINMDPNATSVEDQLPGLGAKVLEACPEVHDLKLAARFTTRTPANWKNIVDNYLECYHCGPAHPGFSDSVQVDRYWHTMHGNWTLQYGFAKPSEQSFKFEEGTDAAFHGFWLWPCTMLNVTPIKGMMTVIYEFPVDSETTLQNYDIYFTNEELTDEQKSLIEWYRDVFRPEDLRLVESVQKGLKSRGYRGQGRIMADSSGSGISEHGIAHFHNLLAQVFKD

The target of the next experiment is T5, YeaW variant K104E (E. coli, UniProt P0ABR7 1-374, K104E).
T5 sequence (looked up): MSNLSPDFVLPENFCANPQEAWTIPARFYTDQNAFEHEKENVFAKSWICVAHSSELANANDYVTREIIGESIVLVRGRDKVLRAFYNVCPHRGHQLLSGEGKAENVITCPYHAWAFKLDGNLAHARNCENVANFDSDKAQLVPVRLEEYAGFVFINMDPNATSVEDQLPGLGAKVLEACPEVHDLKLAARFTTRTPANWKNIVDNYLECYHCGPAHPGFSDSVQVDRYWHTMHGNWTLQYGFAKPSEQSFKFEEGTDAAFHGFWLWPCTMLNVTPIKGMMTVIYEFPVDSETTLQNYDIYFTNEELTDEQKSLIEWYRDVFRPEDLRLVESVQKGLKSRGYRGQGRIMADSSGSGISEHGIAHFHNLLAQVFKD

A further experiment has as its target T6, YeaW variant R83K (E. coli, UniProt P0ABR7 1-374, R83K).
T6 sequence (looked up): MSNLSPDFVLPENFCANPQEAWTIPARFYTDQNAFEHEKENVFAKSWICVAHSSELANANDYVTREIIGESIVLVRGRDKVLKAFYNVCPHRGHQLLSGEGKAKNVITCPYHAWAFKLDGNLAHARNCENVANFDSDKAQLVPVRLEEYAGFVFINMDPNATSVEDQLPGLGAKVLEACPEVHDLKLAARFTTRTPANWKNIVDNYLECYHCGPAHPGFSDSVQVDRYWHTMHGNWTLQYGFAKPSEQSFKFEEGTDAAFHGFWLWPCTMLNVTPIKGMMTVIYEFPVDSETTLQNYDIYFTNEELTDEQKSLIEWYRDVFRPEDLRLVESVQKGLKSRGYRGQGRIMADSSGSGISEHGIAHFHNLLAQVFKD

In a further experiment the target is T7, YeaW variant K117E (E. coli, UniProt P0ABR7 1-374, K117E).
T7 sequence (looked up): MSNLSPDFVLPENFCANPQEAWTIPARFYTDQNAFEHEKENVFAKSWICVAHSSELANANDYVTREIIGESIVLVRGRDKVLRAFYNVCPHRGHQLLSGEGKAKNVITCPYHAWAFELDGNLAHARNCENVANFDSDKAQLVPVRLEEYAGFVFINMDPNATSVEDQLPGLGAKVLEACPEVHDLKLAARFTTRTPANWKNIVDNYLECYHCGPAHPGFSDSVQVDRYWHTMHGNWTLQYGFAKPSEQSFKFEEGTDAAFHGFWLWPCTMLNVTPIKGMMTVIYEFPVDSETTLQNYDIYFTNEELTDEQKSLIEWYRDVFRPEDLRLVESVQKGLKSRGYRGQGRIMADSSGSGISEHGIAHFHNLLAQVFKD

B1: YeaX, reductase component of carnitine monooxygenase from E. coli (enzyme, UniProt P76254 1-321, looked up)
chain: MSDYQMFEVQVSQVEPLTEQVKRFTLVATDGKPLPAFTGGSHVIVQMSDGDNQYSNAYSLLSSPHDTSCYQIAVRLEENSRGGSRFLHQQVKVGDRLTISTPNNLFALIPSARKHLFIAGGIGITPFLSHMAELQHSDVDWQLHYCSRNPESCAFRDELVQHPQAEKVHLHHSSTGTRLELARLLADIEPGTHVYTCGPEALIEAVRSEAARLDIAADTLHFEQFAIEDKTGDAFTLVLARSGKEFVVPEEMTILQVIENNKAAKVECLCREGVCGTCETAILEGEADHRDQYFSDEERASQQSMLICCSRAKGKRLVLDL
Regarding B1, the “L-carnitine depletion activity (wild type = 100%)” value with YeaW variant D221S was 91%; with YeaW variant D135K it was 94%; in the experiment with YeaW variant E330K it was 55%; in the experiment with YeaW variant K104S, 70%; with YeaW variant K104E, 6%; in the experiment with YeaW variant R83K, 76%. Further, the “L-carnitine depletion activity (wild type = 100%)” value with YeaW variant K117E came out at 63%. In addition, the “O2 depletion activity (wild type = 100%)” value in the experiment with YeaW variant D221S came out at 99%; in the experiment with YeaW variant D135K it was 97%; with YeaW variant E330K it was 67%; with YeaW variant K104S, 66%; with YeaW variant K104E, 12%; with YeaW variant R83K, 79%. The “O2 depletion activity (wild type = 100%)” value with YeaW variant K117E amounted to 75%.
